Test results taken from patent US20220332800A1.

Assays:
[1] = target: Zika PRVABC59 live virus (Zika virus); assay: cell-based or functional assay
[2] = target: ZIKV-VLP (Native Antigen Inc.) (Zika virus); assay: BLI binning on ZIKV-VLP; 1st mAb (row): C10
[3] = target: ZIKV-VLP (Native Antigen Inc.) (Zika virus); assay: BLI binning on ZIKV-VLP; 1st mAb (row): 102-1
[4] = target: ZIKV-VLP (Native Antigen Inc.) (Zika virus); assay: BLI binning on ZIKV-VLP; 1st mAb (row): 242-3
[5] = target: ZIKV-VLP (Native Antigen Inc.) (Zika virus); assay: BLI binning on ZIKV-VLP; 1st mAb (row): 289-3
[6] = target: ZIKV-VLP (Native Antigen Inc.) (Zika virus); assay: BLI binning on ZIKV-VLP; 1st mAb (row): 306-2
[7] = target: ZIKV-VLP (Native Antigen Inc.) (Zika virus); assay: BLI binning on ZIKV-VLP; 1st mAb (row): 270-12
[8] = target: ZIKV-VLP (Native Antigen Inc.) (Zika virus); assay: indirect ELISA, purified antibody serially diluted from 10 µg/ml
[9] = target: purified inactivated Zika virus (PIZV) (Zika virus); assay: as above
[10] = target: ZIKV-VLP (Native Antigen Inc.) (Zika virus); assay: BLI binning on ZIKV-VLP; 1st mAb: 4G2
[11] = target: ZIKV-VLP (Native Antigen Inc.) (Zika virus); assay: BLI binning on ZIKV-VLP; 1st mAb: Ab1
[12] = target: ZIKV-VLP (Native Antigen Inc.) (Zika virus); assay: BLI binning on ZIKV-VLP; 1st mAb: Ab2
[13] = target: ZIKV-VLP (Native Antigen Inc.) (Zika virus); assay: BLI binning on ZIKV-VLP; 1st mAb: C10
[14] = target: ZIKV-VLP (Native Antigen Inc.) (Zika virus); assay: BLI binning on ZIKV-VLP; 1st mAb: 11-3
[15] = target: ZIKV-VLP (Native Antigen Inc.) (Zika virus); assay: BLI binning on ZIKV-VLP; 1st mAb: 78-2
[16] = target: ZIKV-VLP (Native Antigen Inc.) (Zika virus); assay: BLI binning on ZIKV-VLP; 1st mAb: 102-1
[17] = target: ZIKV-VLP (Native Antigen Inc.) (Zika virus); assay: BLI binning on ZIKV-VLP; 1st mAb: 181-4
[18] = target: ZIKV-VLP (Native Antigen Inc.) (Zika virus); assay: BLI binning on ZIKV-VLP; 1st mAb: 242-3
[19] = target: ZIKV-VLP (Native Antigen Inc.) (Zika virus); assay: BLI binning on ZIKV-VLP; 1st mAb: 260-2
[20] = target: ZIKV-VLP (Native Antigen Inc.) (Zika virus); assay: BLI binning on ZIKV-VLP; 1st mAb: 289-3
[21] = target: ZIKV-VLP (Native Antigen Inc.) (Zika virus); assay: BLI binning on ZIKV-VLP; 1st mAb: 306-2
[22] = target: ZIKV-VLP (Native Antigen Inc.) (Zika virus); assay: BLI binning on ZIKV-VLP; 1st mAb: 329-2
[23] = target: ZIKV-VLP (Native Antigen Inc.) (Zika virus); assay: BLI binning on ZIKV-VLP; 1st mAb: 270-12

Substance | EC50 (half-maximal binding concentration) [8] [µg/mL] | response of 2nd mAb [10] | response of 2nd mAb [11] | response of 2nd mAb [12] | response of 2nd mAb [13] | response of 2nd mAb [14] | response of 2nd mAb [15] | response of 2nd mAb [16] | response of 2nd mAb [17] | response of 2nd mAb [18] | response of 2nd mAb [19] | response of 2nd mAb [20] | response of 2nd mAb [21] | response of 2nd mAb [22] | response of 2nd mAb [23] | other results
C10 (commercially-available anti-dengue antibody) | 0.162 | 0.24 | 0.66 | 0.05 | 0.17 | 0.63 | 0.56 | 0.68 | 0.55 | 0.59 | 0.61 | 0.63 | 0.62 | 0.57 | 0.58 | MNT IC50 (ng/mL) of Purified antibody [1]: 306 ng/mL; response of 2nd mAb [2]: -0.0123; response of 2nd mAb [3]: -0.0138; response of 2nd mAb [4]: -0.0078; response of 2nd mAb [5]: -0.0388; response of 2nd mAb [6]: 0.0209; response of 2nd mAb [7]: -0.0081; EC50 (half-maximal binding concentration) [9]: 0.0268 µg/mL
4G2 (commercially-available anti-dengue antibody) | 0.33 | 0.62 | 0.52 | -0.08 | 0.54 | 0.52 | 0.17 | 0.46 | 0.5 | 0.52 | 0.54 | 0.51 | 0.43 | 0.51 | 0.43 | EC50 [9]: 0.0182 µg/mL
